Where a chain is given by its changes, count along the chain named. Names and notes keep the numbering of the source.
B1: p18m-I269F (p18m_AUG2-I269F) (domain or fragment, S. cerevisiae, UniProt P08405 259-355, looked up)
chain: MQSDTQEANDFVTLANLQYNGSTPADAFETKVTNIIDRLNNNGIHINNKVACQLIMRGLSGEYKFLRYTRHRHLNMTVAELFLDIHAIYEEQQGSRN
notes: S. cerevisiae Ty1A (Ty1 Gag), Uniprot P08405, residues M259-N355 with I269F; source: E. coli BL21 (DE3), purified
B2: p18m-A273V (p18m_AUG2-A273V), solution studies (domain or fragment, S. cerevisiae, UniProt P08405 259-355, looked up)
chain: B1 chain with F11I, A15V
notes: S. cerevisiae Ty1A (Ty1 Gag), Uniprot P08405, residues M259-N355 with A273V; Tag removal is described only for the crystallographic sample; source: E. coli BL21 (DE3), purified
B3: p18m-F323S (domain or fragment, S. cerevisiae, UniProt P08405 259-355, looked up)
chain: B1 chain with F11I, F65S
notes: S. cerevisiae Ty1A (Ty1 Gag), Uniprot P08405, with F323S; also called Dimer-2 interface-mutant p18m-F323S; source: E. coli BL21 (DE3), purified
B4: Seleno-methionine p18m_AUG2 (crystallised) (domain or fragment, S. cerevisiae, UniProt P08405 259-355, looked up)
chain: B1 chain with F11I
modifications: seleno-methionine substituted
notes: S. cerevisiae Ty1A (Ty1 Gag), Uniprot P08405, residues M259-N355; also called Se-Met p18m_(AUG2); source: E. coli B834 (DE3) in seleno-methionine medium, purified (Ni-NTA, gel filtration in Acetate Buffer)
B5: p18m_AUG2-A273C (domain or fragment, S. cerevisiae, UniProt P08405 259-355, looked up)
chain: B1 chain with F11I, A15C
notes: S. cerevisiae Ty1A (Ty1 Gag), Uniprot P08405, residues M259-N355 with A273C; source: bacterially expressed (E. coli), purified
B6: p18m (p18m_AUG2), Ty1 Gag residues M259-N355 (domain or fragment, S. cerevisiae, UniProt P08405 259-355, looked up)
chain: B1 chain with F11I
notes: S. cerevisiae Ty1A (Ty1 Gag), Uniprot P08405, residues M259-N355, starting at the AUG2 methionine; also called WT p18m; source: E. coli BL21 (DE3), purified (Ni-NTA, gel filtration in Acetate Buffer)
B7: p18m_AUG1, Ty1 Gag residues M249-N355 (crystallised) (domain or fragment, S. cerevisiae, UniProt P08405 249-355, looked up)
chain: MKILSKSIEKMQSDTQEANDIVTLANLQYNGSTPADAFETKVTNIIDRLNNNGIHINNKVACQLIMRGLSGEYKFLRYTRHRHLNMTVAELFLDIHAIYEEQQGSRN
notes: S. cerevisiae Ty1A (Ty1 Gag), Uniprot P08405, residues M249-N355, starting at the AUG1 methionine; Residues D262 to Q351 are visible in the map; source: E. coli BL21 (DE3), purified (Ni-NTA, carboxypeptidase A digestion, gel filtration)

Tests used:
[1] = biological target: the molecule itself; assay: SEC-MALLS; 100-400 µM loaded in 100 µL on Superdex INCREASE 200 10/300 GL in Acetate Buffer (50 mM sodium acetate, 300 mM NaCl, 1 mM TCEP pH 5.0), 1.0 mL/min
[2] = biological target: the molecule itself; assay: AUC; multispeed sedimentation equilibrium (18,000, 21,000, 26,000 rpm), Acetate Buffer, global fit to a monomer-dimer-tetramer model; constant of: dimer to monomers (KD1-2)
[3] = biological target: the molecule itself; assay: AUC; multispeed sedimentation equilibrium (18,000, 21,000, 26,000 rpm), Acetate Buffer, global fit to a monomer-dimer-tetramer model; constant of: tetramer to dimers (KD2-4)
[4] = biological target: the molecule itself; assay: AUC; sedimentation velocity, 50,000 rpm, 293 K, Acetate Buffer, interference data, 30-181 µM, C(S) analysis
[5] = biological target: the molecule itself; assay: crystal structure; sitting drop vapour diffusion at 18 °C; spacegroup P6_(5)22, three copies in the asymmetric unit arranged as two dimer interfaces

| Protein | stoichiometry N [1] | Kd [2] | Kd [3] | stoichiometry N [4] | binding result [5] |
| --- | --- | --- | --- | --- | --- |
| B1 | 2 | 0.74 µM | 45.3 µM |  |  |
| B2 |  | 0.34 µM | 51.8 µM | 2 |  |
| B3 | 2 |  |  |  |  |
| B4 |  |  |  |  | binds |
| B5 | 2 |  |  |  |  |
| B6 | 2 | 0.73 µM | 43.2 µM |  |  |
| B7 |  |  |  |  | binds |

From paper PMC8458377 (Nature Communications, 2021)
